Reference: patent US20160333095A1 (Genmab, published 2016)
Where a chain is given by its changes, count along the chain named. Names may count otherwise.

B1: IgG1-huCD3-H4L1-LFLEDA (antibody, V domains shown)
VH: EVKLVESGGGLVKPGRSLRLSCAASGFTFNTYAMNWVRQAPGKGLEWVARIRSKYNNYATYYADSVKDRFTISRDDSKSILYLQMNSLKTEDTAMYYCVRHGNFGNSYVSWFAYWGQGTMVTVSS
VL: not shown
B2: IgG1-huCD3-H3L3-LFLEDA (antibody, V domains shown)
VH: B1 VH with M120L
VL: QAVVTQEPSFSVSPGGTVTLTCRSSTGAVTTSNYANWVQQTPGQAFRGLIGGTNKRAPGVPARFSGSILGNKAALTITGAQADDESDYYCALWYSNLWVFGGGTKLTVL
B3: IgG1-huCD3-H1L1-LFLEDA (antibody, V domains shown)
VH: B1 VH with K13Q, R16G, I80S, S87N, M120L
VL: not shown
notes: also called IgG1-3huCD3-H1L1-LFLEDA; wild type IgG1-huCD3-H1L1-LFLEDA
B4: IgG1-huCD3-H4L3-LFLEDA (antibody, V domains shown)
VH: B1 VH
VL: B2 VL
B5: IgG1-huCD3-H1L3-LFLEDA (antibody, V domains shown)
VH: B1 VH with K13Q, R16G, I80S, S87N, M120L
VL: B2 VL
B6: bsIgG1 huCD3-H3L1×HER2-LFLEDA (bispecific antibody, V domains shown)
VH 1: B1 VH with M120L
VL 1: not shown
VH 2: QVQLVQSGAEVKKPGASVKVSCKASGYTFTNYGISWVRQAPGQGLEWMGWLSAYSGNTIYAQKLQGRVTMTTDTSTTTAYMELRSLRSDDTAVYYCARDRIVVRPDYFDYWGQGTLVTVSS
VL 2: EIVLTQSPATLSLSPGERATLSCRASQSVSSYLAWYQQKPGQAPRLLIYDASNRATGIPARFSGSGSGTDFTLTISSLEPEDFAVYYCQQRSNWPRTFGQGTKVEIK
notes: LFLEDA = L234F/L235E/D265A; also called bsIgG1 huCD3-H3L1-LFLEDA
B7: bsIgG1 CD3×HER2 (bispecific antibody, V domains shown)
VH 1: B1 VH with V5L, K13Q, G15K, R16G, R19K, K78Q, S87N, M120L, S125A
VL 1: QAVVTQESALTTSPGETVTLTCRSSTGAVTTSNYANWVQEKPDHLFTGLIGGTNKRAPGVPARFSGSLIGDKAALTITGAQTEDEAIYFCALWYSNLWVFGGGTKLTVL
VH 2: B6 VH 2
VL 2: B6 VL 2
B8: bsIgG1-huCD3-H1L1-LK55N/HER2-LFLEDA (bispecific antibody, V domains shown)
VH 1: B1 VH with K13Q, R16G, I80S, S87N, M120L
VL 1: not shown
VH 2: B6 VH 2
VL 2: B6 VL 2
notes: LFLEDA = L234F/L235E/D265A; also called bsIgG1-huCD3-LK55N/HER2-LFLEDA
B9: IgG1-huCD3-H1-LFLEDA-LT41K (antibody, V domains shown)
VH: B1 VH with K13Q, R16G, I80S, S87N, M120L
VL: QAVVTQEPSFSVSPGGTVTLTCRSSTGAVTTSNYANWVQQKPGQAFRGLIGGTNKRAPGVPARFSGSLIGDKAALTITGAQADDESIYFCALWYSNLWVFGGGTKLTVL
notes: IgG1 with LFLEDA; supernatant preparation; also called T41K mutant
B10: IgG1-huCD3-H1-LFLEDA-LF10L (antibody, V domains shown)
VH: B1 VH with K13Q, R16G, I80S, S87N, M120L
VL: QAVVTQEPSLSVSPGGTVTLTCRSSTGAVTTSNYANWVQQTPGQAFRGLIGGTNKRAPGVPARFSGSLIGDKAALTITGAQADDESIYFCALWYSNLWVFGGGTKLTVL
notes: IgG1 with LFLEDA (L234F/L235E/D265A); tested as supernatant preparation; also called IgG1-huCD3-H1L1-LF10L (with LFLEDA)
B11: IgG1-huCD3-H1-LFLEDA-LL97H (antibody, V domains shown)
VH: B1 VH with K13Q, R16G, I80S, S87N, M120L
VL: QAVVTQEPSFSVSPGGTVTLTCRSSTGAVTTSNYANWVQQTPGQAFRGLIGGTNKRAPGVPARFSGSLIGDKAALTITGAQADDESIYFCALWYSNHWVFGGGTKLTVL
notes: IgG1 with LFLEDA; supernatant preparation
B12: IgG1-huCD3-H1-LFLEDA-LLKNH (antibody, V domains shown)
VH: B1 VH with K13Q, R16G, I80S, S87N, M120L
VL: B2 VL with F10L, T41K, K55N, I68L, L69I, N71D, D87I, Y89F, L97H
notes: IgG1 with LFLEDA; supernatant preparation; also called LKNH mutant
B13: IgG1-huCD3-H1-LFLEDA-LK55N (antibody, V domains shown)
VH: B1 VH with K13Q, R16G, I80S, S87N, M120L
VL: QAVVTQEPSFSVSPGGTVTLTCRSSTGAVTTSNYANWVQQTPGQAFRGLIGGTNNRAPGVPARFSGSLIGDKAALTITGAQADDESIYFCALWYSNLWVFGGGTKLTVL
notes: IgG1 with LFLEDA; supernatant preparation; also called K55N mutant
B14: IgG1-huCD3-H1L1 (antibody, V domains shown)
VH: B1 VH with K13Q, R16G, I80S, S87N, M120L
VL: not shown
notes: IgG1,λ with wild-type Fc region
B15: IgG1-CD3-LFLEDA (antibody, V domains shown)
VH: B1 VH with V5L, K13Q, G15K, R16G, R19K, K78Q, S87N, M120L, S125A
VL: B7 VL 1
notes: also called chimeric, parental CD3 antibody
B16: IgG1-huCD3-H3L3 (antibody, V domains shown)
VH: B1 VH with M120L
VL: B2 VL
notes: as for B14
B17: IgG1-huCD3-H3L1-LFLEDA (antibody, V domains shown)
VH: B1 VH with M120L
VL: not shown
B18: IgG1-huCD3-H4L1 (antibody, V domains shown)
VH: B1 VH
VL: not shown
notes: as for B14
B19: IgG1-huCD3-H1L2 (antibody, V domains shown)
VH: B1 VH with K13Q, R16G, I80S, S87N, M120L
VL: B2 VL with D87I, Y89F
notes: as for B14
B20: IgG1-huCD3-H1L3 (antibody, V domains shown)
VH: B1 VH with K13Q, R16G, I80S, S87N, M120L
VL: B2 VL
notes: as for B14
B21: bsIgG1-huCD3-H1L3×HER2-LFLEDA (bispecific antibody, V domains shown)
VH 1: B1 VH with K13Q, R16G, I80S, S87N, M120L
VL 1: B2 VL
VH 2: B6 VH 2
VL 2: B6 VL 2
notes: LFLEDA = L234F/L235E/D265A
B22: bsIgG1-huCD3-H1L1×HER2-LFLEDA (bispecific antibody, V domains shown)
VH 1: B1 VH with K13Q, R16G, I80S, S87N, M120L
VL 1: not shown
VH 2: B6 VH 2
VL 2: B6 VL 2
notes: LFLEDA = L234F/L235E/D265A
B23: bsIgG1-huCD3-H4L1×HER2-LFLEDA (bispecific antibody, V domains shown)
VH 1: B1 VH
VL 1: not shown
VH 2: B6 VH 2
VL 2: B6 VL 2
notes: LFLEDA = L234F/L235E/D265A
B24: bsIgG1-huCD3-H3L3×HER2-LFLEDA (bispecific antibody, V domains shown)
VH 1: B1 VH with M120L
VL 1: B2 VL
VH 2: B6 VH 2
VL 2: B6 VL 2
notes: LFLEDA = L234F/L235E/D265A
B25: bsIgG1-huCD3-H4L3×HER2-LFLEDA (bispecific antibody, V domains shown)
VH 1: B1 VH
VL 1: B2 VL
VH 2: B6 VH 2
VL 2: B6 VL 2
notes: LFLEDA = L234F/L235E/D265A

Molecular target: T1, cynomolgus CD3 (cynomolgus monkey, UniProt Q95LI5 22-198)
T1 construct: also called CD3 on the cynomolgus T-cell line HSC-F; cynomolgus CD3ε (epsilon)
T1 sequence (Q95LI5 22-198): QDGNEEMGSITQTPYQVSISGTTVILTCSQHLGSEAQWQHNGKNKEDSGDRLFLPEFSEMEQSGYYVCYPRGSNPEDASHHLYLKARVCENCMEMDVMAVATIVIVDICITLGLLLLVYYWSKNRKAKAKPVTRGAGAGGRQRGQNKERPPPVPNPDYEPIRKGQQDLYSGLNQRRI
Experiment: flow cytometry on HSC-F cells, FIG. 7A
Procedure: (§1) In addition to the non-activating mutations, LFLEDA, the antibody variants contained F405L or K409R mutations as described in Example 1.
(§2) Cells (1×10⁵ cells/well) were incubated in polystyrene 96-well round-bottom plates (Greiner bio-one 650101) with serial dilutions of antibody preparations (range 5 to 10,000 ng/mL in 3-fold dilutions) in 100 μL PBS/0.1% BSA/0.02% azide at 4° C. for 30 min.
(§3) After washing twice in PBS/0.1% BSA/0.02% azide, cells were incubated in 100 μL with secondary antibody at 4° C. for 30 min. As a secondary antibody, R-Phycoerythrin (PE)-conjugated goat-anti-human IgG F(ab′)2 (109-116-098, Jackson ImmunoResearch Laboratories, Inc., West Grove, Pa.) diluted 1/100 in PBS/0.1% BSA/0.02% azide, was used for all experiments. Next, cells were washed twice in PBS/0.1% BSA/0.02% azide, re-suspended in 150 μL PBS/0.1% BSA/0.02% azide and analyzed on a FACS Cantoll (BD Biosciences). Binding curves were analyzed using non-linear regression (sigmoidal dose-response with variable slope) using GraphPad Prism V 5.04 software (GraphPad Software, San Diego, Calif., USA).

| Binder | binding result |
| --- | --- |
| B1 | binds |
| B2 | binds |
| B3 | binds |
| B4 | binds |
| B5 | binds |

Molecular target: T1, cynomolgus CD3
Experiment: flow cytometry on HSC-F cells, FIG. 2B
Procedure: as §1, §2, §3

| Binder | binding result |
| --- | --- |
| B6 | binds |
| B7 | binds |

Molecular target: T2, human CD3 (human, UniProt P07766 22-207)
T2 construct: also called CD3 on the human T-cell line Jurkat; CD3 on human T cells
T2 sequence (P07766 22-207 limits assumed): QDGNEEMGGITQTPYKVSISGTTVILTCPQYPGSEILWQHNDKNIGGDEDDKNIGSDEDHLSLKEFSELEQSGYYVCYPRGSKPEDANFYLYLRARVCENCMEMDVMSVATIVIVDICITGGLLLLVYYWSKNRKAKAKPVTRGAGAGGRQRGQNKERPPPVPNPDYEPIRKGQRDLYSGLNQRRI
Experiment: flow cytometry on isolated human T cells, FIG. 22
Procedure: As a secondary antibody, R-Phycoerythrin (PE)-conjugated goat-anti-human IgG F(ab′)2 (Jackson ImmunoResearch Laboratories, Inc., West Grove, Pa.) diluted 1/200 in PBS/0.1% BSA/0.02% azide, was used for all experiments. […] Binding curves were analyzed using nonlinear regression (sigmoidal dose-response with variable slope) using GraphPad Prism V 5.04 software (GraphPad Software, San Diego, Calif., USA).

| Binder | EC50 [µg/mL] |
| --- | --- |
| B8 | 0.61 |

Molecular target: T2, human CD3
Experiment: flow cytometry on Jurkat cells, supernatant preparations, FIG. 21
Procedure: (§4) Jurkat cells (DSMZ, Brunswick, Germany) were thawed at 37° C. and washed once in 30 mL PBS and spun for 10 minutes at 300×g at 4° C. Cell pellet was resuspended in 25 mL of PBS/0.1% BSA/0.02% azide at a final concentration of 0.8×10⁶ cells/mL. 100 μL of this cell suspension (0.8×10⁵ cells/well) was transferred into polystyrene 96-well round-bottom plates (Greiner Bio-one, Alphen a/d Rijn, The Netherlands) and incubated with serial dilutions of supernatant preparations (range 3 to 10,000 ng/mL in 3-fold dilutions) in PBS/0.1% BSA/0.02% azide at 4° C. for 30 minutes. After washing three times in PBS/0.1% BSA/0.02% azide, Jurkat cells were incubated in 50 μL with secondary antibody at 4° C. for 30 min. As a secondary antibody, R-Phycoerythrin (PE)-conjugated goat-anti-human IgG F(ab′)2 (Jackson ImmunoResearch Laboratories, Inc., West Grove, Pa.) diluted 1/200 in PBS/0.1% BSA/0.02% azide, was used for all experiments. Next, Jurkat cells were washed twice in PBS/0.1% BSA/0.02% azide, re-suspended in 150 μL PBS/0.1% BSA/0.02% azide and analyzed on a FACS Cantoll (BD Biosciences). Binding curves were analyzed using nonlinear regression (sigmoidal dose-response with variable slope) using GraphPad Prism V 5.04 software (GraphPad Software, San Diego, Calif., USA).

| Binder | EC50 [µg/mL] |
| --- | --- |
| B9 | 0.096 |
| B10 | 0.169 |
| B11 | 0.095 |
| B12 | 0.438 |
| B13 | 0.531 |

Molecular target: T1, cynomolgus CD3
Experiment: flow cytometry on HSC-F cells, FIG. 2A
Procedure: as §1, §2, §3

| Binder | binding result |
| --- | --- |
| B14 | binds |
| B15 | binds |
| B16 | binds |
| B17 | binds |
| B18 | binds |
| B19 | binds |
| B20 | binds |

Molecular target: T1, cynomolgus CD3
Experiment: flow cytometry on HSC-F cells, FIG. 7B
Procedure: as §1, §2, §3

| Binder | binding result |
| --- | --- |
| B21 | binds |
| B22 | binds |
| B23 | binds |
| B24 | binds |
| B25 | binds |

Molecular target: T2, human CD3
Experiment: flow cytometry on Jurkat cells, FIG. 21
Procedure: as §4

| Binder | fold lower apparent affinity than wild type IgG1-huCD3-H1L1-LFLEDA [fold] |
| --- | --- |
| B12 | 5 |
| B13 | 5 |
